T1: sensor B, polyhistidine-tagged recombinant FRET probe (bacterial version) (not fully specified)
T1 chain: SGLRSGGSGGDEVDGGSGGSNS

T2: AC-DEVD-CHO
T2 chain: DEVD

T3: CFP-YFP fusion protein, polyhistidine-tagged (bacterial version, no caspase substrate sequence)
T3 chain: SGLRSRAQASNS

T4: sensor A, polyhistidine-tagged recombinant FRET probe (bacterial version) (not fully specified)
T4 chain: SGLRSGGDEVDGGSNS

B1: caspase-3 (protein)
chain: SGISLDNSYKMDYPEMGLCIIINNKNFHKSTGMTSRSGTDVDAANLRETFRNLKYEVRNKNDLTREEIVELMRDVSKEDHSKRSSFVCVLLSHGEEGIIFGTNGPVDLKKITNFFRGDRCRSLTGKPKLFIIQACRGTELDCGIETDSGVDDDMACHKIPVEADFLYAYSTAPGYYSWRNSKDGSWFIQSLCAMLKQYADKLEFMHILTRVNRKVATEFESFSFDATFHAKKQIPCIVSMLTKELYFYH
B2: caspase-8 (protein)
chain: SESQTLDKVYQMKSKPRGYCLIINNHNFAKAREKVPKLHSIRDRNGTHLDAGALTTTFEELHFEIKPHDDCTVEQIYEILKIYQLMDHSNMDCFICCILSHGDKGIIYGTDGQEAPIYELTSQFTGLKCPSLAGKPKVFFIQACQGDNYQKGIPVETDSEEQPYLEMDLSSPQTRYIPDEADFLLGMATVNNCVSYRNPAEGTWYIQSLCQSLRERCPRGDDILTILTEVNYEVSNKDDKKNMGKQMPQPTFTLRKKLVFPSD

Key:
[1] = target: T1, sensor B, polyhistidine-tagged …
[2] = target: T2, AC-DEVD-CHO
[3] = target: T3, CFP-YFP fusion protein, …
[4] = target: T4, sensor A, polyhistidine-tagged …
[5] = target: sensor C8A, polyhistidine-tagged
[6] = target: sensor C8, polyhistidine-tagged

| Protein | cleavage, Western blot [1] | decrease of the emission ratio of YFP/CFP [1] | dosage-dependent caspase-3 cleavage assay, normalized emission ratio (YFP/CFP) [1] | emission ratio of YFP/CFP before and after caspase-3 [1] | cleavage of sensor A by caspase-3, Western blot [2] | cleavage, Western blot [3] | emission spectrum after caspase-3 [3] | cleavage, Western blot [4] | decrease of the emission ratio of YFP/CFP [4] | dosage-dependent caspase-3 cleavage assay, normalized emission ratio (YFP/CFP) [4] | emission ratio of YFP/CFP before and after caspase-3 [4] | caspase-8 concentration that reduces the FRET effect by 50% (sensor 22.45 nM, one hour) [5] | cleavage, Western blot [5] | fraction of the sensor cleaved, band intensity on Western blot, caspase-8 216 nM, one hour [5] | caspase-8 concentration that reduces the FRET effect by 50% (sensor 22.45 nM, one hour) [6] | caspase-8 needed for 50% FRET reduction, against sensor C8A [6] | cleavage, Western blot [6] | fraction of the sensor cleaved, band intensity on Western blot, caspase-8 216 nM, one hour [6] |
| --- | --- | --- | --- | --- | --- | --- | --- | --- | --- | --- | --- | --- | --- | --- | --- | --- | --- | --- |
| B1 | caspase-3 can cleave almost all the sensor A and sensor B protein | decreased by 4-5 fold | both FRET probes were highly sensitive to caspase-3, although sensor A appeared to be slightly more sensitive than sensor B | from 2.76 to 0.59 for sensor B | In the presence of caspase-3 inhibitor (AC-DEVD-CHO), no FRET probe (sensor A) was cleaved | no cleavage was seen for CFP-YFP fusion protein under the same condition | no change for the emission spectrum was observed from the CFP-YFP fusion protein which lacks the substrate sequence | caspase-3 can cleave almost all the sensor A and sensor B protein | decreased by 4-5 fold | both FRET probes were highly sensitive to caspase-3, although sensor A appeared to be slightly more sensitive than sensor B | from 3.02 to 0.59 for sensor A | – | – | – | – | – | – | – |
| B2 | – | – | – | – | – | – | – | – | – | – | – | about 0.71 nM of caspase-8 was needed to reduce 50% of the FRET effect for sensor C8A | both sensor C8 and C8A could be cleaved by caspase-8 to release a CFP and a YFP molecule | 95% of the sensor C8A protein was cleaved after incubation with caspase-8 (216 nM) for one hour | about 5-fold more caspase-8 (3.4 nM) was required to produce the same FRET reduction for sensor C8 | about 5-fold more caspase-8 (3.4 nM) was required to produce the same FRET reduction for sensor C8 | both sensor C8 and C8A could be cleaved by caspase-8 to release a CFP and a YFP molecule | only 58% of the sensor C8 protein was cleaved under the same condition |
